Measurements: article PMC7170509, “Substrate recognition and ATPase activity of the E. coli cysteine/cystine ABC transporter YecSC-FliY” (The Journal of Biological Chemistry, 2020)
One block for each molecule: values may come before it.

Experiments:
[1] = biological target: T1, FliY (Escherichia coli, UniProt P0AEM9); assay: isothermal titration calorimetry; format: binding
T1 construct: gene tcyJ; C-terminal His6 tag (pET21b); expressed in E. coli BL21-Gold(DE3), purified from osmotic shock extract; monomer

[2] = biological target: T1, FliY; assay: nanoDSF thermal shift; format: binding; conditions: 30 μM FliY, 200 μM ligand; 50 mM Tris-HCl pH 7.5, 250 mM NaCl
[3] = biological target: T2, YecSC, the E. coli cysteine/cystine ABC transporter (YecS transmembrane domain and YecC nucleotide-binding … (E. coli, UniProt P0AFT2 1-222; P37774 1-250); assay: cell-based or functional assay
T2 sequence (looked up) 1: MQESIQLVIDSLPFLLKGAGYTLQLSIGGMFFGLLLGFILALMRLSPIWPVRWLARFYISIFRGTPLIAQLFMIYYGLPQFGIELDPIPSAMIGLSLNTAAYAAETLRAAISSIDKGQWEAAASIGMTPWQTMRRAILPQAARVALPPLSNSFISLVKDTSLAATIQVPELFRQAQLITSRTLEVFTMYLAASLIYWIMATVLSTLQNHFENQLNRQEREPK
T2 sequence (looked up) 2: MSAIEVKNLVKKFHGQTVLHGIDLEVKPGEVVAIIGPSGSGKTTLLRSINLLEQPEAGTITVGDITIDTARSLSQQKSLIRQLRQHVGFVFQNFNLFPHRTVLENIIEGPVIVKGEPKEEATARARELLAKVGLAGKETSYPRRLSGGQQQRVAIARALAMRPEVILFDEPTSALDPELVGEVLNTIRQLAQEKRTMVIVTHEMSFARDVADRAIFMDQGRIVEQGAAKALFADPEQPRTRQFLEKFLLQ

Molecule: N[C@H](CS)C(=O)O [D-cysteine]
Kd [1]: 10 ± 3.4 µM

Molecule: N[C@@H](CS)C(=O)O [L-cysteine]
Kd [1]: 14.4 ± 2.4 µM

Now from value to molecule, other results behind:

Kd [1]: 9.3 ± 2.8 µM
Molecule: N[C@@H](CSSC[C@H](N)C(=O)O)C(=O)O [L-cystine]
dTm [2]: the L-enantiomer of its oxidized dimeric form (Cys-S-S-Cys, cystine) also led to thermostabilization of FliY

apparent Km for FliY of the stimulation of ATP hydrolysis by 1 μM YecSC (0.25–20 μM FliY), in the absence of substrate (apo FliY) [3]: 10.3 µM
apparent Km for FliY of the stimulation of ATP hydrolysis by 1 μM YecSC (0.25–20 μM FliY), in the presence of 100 μM L-cystine (holo FliY) [3]: 1.1 µM
interaction ratio from the Michaelis–Menten fit of initial ATPase rates of YecSC against FliY concentration, without and with L-cystine [3]: 1 FliY:YecSC
stimulation of the ATPase activity of YecSC by FliY with L-cystine, over basal activity [3]: ~11 fold
stimulation of the ATPase activity of YecSC by substrate-free apo FliY, over basal activity [3]: ~3 fold
B1: FliY, the substrate-binding protein (SBP) of the E. coli YecSC-FliY cysteine/cystine ABC import system (natural protein, UniProt P0AEM9 30-266, looked up)
chain: DEGLLNKVKERGTLLVGLEGTYPPFSFQGDDGKLTGFEVEFAQQLAKHLGVEASLKPTKWDGMLASLDSKRIDVVINQVTISDERKKKYDFSTPYTISGIQALVKKGNEGTIKTADDLKGKKVGVGLGTNYEEWLRQNVQGVDVRTYDDDPTKYQDLRVGRIDAILVDRLAALDLVKKTNDTLAVTGEAFSRQESGVALRKGNEDLLKAVNDAIAEMQKDGTLQALSEKWFGADVTK
